Here are results for 4 substances from article PMC2650427 (Bioconjugate chemistry, 2008).

This data set can be described thus: Determination of q by luminescence lifetime measurements. It counts as physicochemical. The settings on record: emission 544 nm, excitation 229 nm, 25 scans averaged, monoexponential fit.
Consider Tb(III)-DOTA-Arg8 [compound 10], for which the “kD2O (luminescence decay rate in D2O)” value was found to be 0.315 ms^−1 and the “kH2O (luminescence decay rate in H2O)” value was determined as 0.566 ms^−1.
Taken in the same sequence, the figures for Tb(III)-DOTA-SS-Arg8 [compound 12] were 0.397 ms^−1 and 0.644 ms^−1.
Consider Tb(III)-DTPA-Arg8 [compound 11], for which the “kD2O (luminescence decay rate in D2O)” value came out at 0.331 ms^−1 and the “kH2O (luminescence decay rate in H2O)” value worked out at 0.635 ms^−1.
Taken in the same sequence, the figures for Tb(III)-DTPA-SS-Arg8 [compound 13] were 0.390 ms^−1 and 0.671 ms^−1.
